Here are results for one molecule from patent US20250262323, “PCSK9 ENDONUCLEASE VARIANTS, COMPOSITIONS, AND METHODS OF USE” (Novo Nordisk A/S, published 2025).

Data set [1] deals with T1, PCSK9.H7.C11 I-OnuI HE variant (synthetic construct (Ophiostoma …)).
T1 chain: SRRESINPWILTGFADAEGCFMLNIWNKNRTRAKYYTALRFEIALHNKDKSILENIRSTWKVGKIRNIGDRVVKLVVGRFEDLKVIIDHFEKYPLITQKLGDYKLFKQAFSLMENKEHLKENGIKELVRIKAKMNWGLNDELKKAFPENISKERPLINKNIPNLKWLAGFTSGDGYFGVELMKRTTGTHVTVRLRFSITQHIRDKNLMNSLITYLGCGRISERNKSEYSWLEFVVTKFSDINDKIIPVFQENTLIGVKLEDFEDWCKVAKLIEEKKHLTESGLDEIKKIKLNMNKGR
Nature of the data set: flow; sub-nanomolar affinity; yeast surface display substrate titration; exact value only in figure. Conditions: tags: yeast surface display.

The target in data set [2] is T1, PCSK9.H7.C11 I-OnuI HE variant. As to the kind of experiment: cell_activity; HEK 293T chromosomal mCherry reporter. As for the experimental part: The activity of reprogrammed I-OnuI HEs that target exon 4 of the PCSK9 gene was measured using a chromosomally integrated fluorescent reporter system (Certo et. al., 2011). Fully reprogrammed I-OnuI HEs that bind and cleave the PCSK9 target sequence were cloned into mammalian expression plasmids and then individually transfected into a HEK 293T […] cell line that contained the PCSK9 target sequence upstream of an out-of-frame gene encoding the fluorescent mCherry protein. Cleavage of the embedded target site by the HE and the accumulation of indels following DNA repair via the non-homologous end joining (NHEJ) pathway results in approximately one out of three repaired loci placing the fluorescent reporter gene back “in-frame”. The percentage of mCherry fluorescing HEK 293T cells is therefore used a readout of endonuclease activity at the chromosomally embedded target sequence. […] FIG. 3 (top panels).
A secondary I-OnuI variant library was next generated by performing random mutagenesis on the PCSK9.H7 HE variant (e.g., SEQ ID NO: 6). Display-based flow sorting was performed under more stringent cleavage conditions in an effort to isolate variants with improved catalytic efficiency. FIG. 3 (bottom panel). This process led to variant PCSK9.H7.C11 (SEQ ID NO: 7) with an approximately 2-fold higher rate of mCherry expressing cells.

B1: PCSK9 exon 4 HE target site (dsDNA)
DNA 1: ATCTAAGAGATACACCTCCACC
DNA 2: GGTGGAGGTGTATCTCTTAGAT
Molecule B1 showed a Kd in data set [1] of under 1 nM. Besides, the activity in data set [2] is about 2 fold vs PCSK9.H7.
